Laboratory results as given in patent US20240024414.

Each substance was assayed against L7Ae (50S ribosomal protein L7Ae, L30 family, RBP11) (Archaeoglobus fulgidus) (UniProt O29494) (assay: pulldown). Conditions: RIP-Seq enrichment, may be indirect.
Sequence of L7Ae (50S ribosomal protein L7Ae, L30 family, RBP11) (Archaeoglobus fulgidus) (O29494 whole entry): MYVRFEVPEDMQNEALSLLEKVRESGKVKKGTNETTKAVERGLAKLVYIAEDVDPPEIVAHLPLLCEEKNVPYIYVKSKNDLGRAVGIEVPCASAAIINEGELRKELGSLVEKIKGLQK

Substance | binding signal (log2 fold change)
NPM1 RNA | 3.22
SNORA73B RNA | 4.08
FAM69A RNA | 4.98
SNORA79B RNA | 3.28
SNORA62 RNA | 3.32
